Data from patent publication US20080300385A1.

Key:
[1] = molecular target: Tat protein from HIV-1 strain BH10 (HIV-1 strain BH10) (UniProt P69697); assay: ITC in free solution (FIG. 7)
[2] = molecular target: Tat protein from HIV-1 strain BH10 (HIV-1 strain BH10) (UniProt P69697); assay: SPR, kinetic experiment (FIG. 5B)

Substance: gp140 Env protein from HIV-1 strain SF162 (o-gp140SF162), trimer (from UniProt P19550 32-675)
- stoichiometry (Tat molecules per Env trimer) (Tat molecules per Env trimer) [1]: 3
- Kd [2]: 37 nM
